Data reported in patent publication US20080220459.

Tests used:
[1] = system: bovine collagen alpha1 (IX) in bovine nasal cartilage explants
[2] = target: human collagen alpha1 (IX) in human articular cartilage (UniProt P20849)
Sequence of human collagen alpha1 (IX) in human articular cartilage (P20849 24-921): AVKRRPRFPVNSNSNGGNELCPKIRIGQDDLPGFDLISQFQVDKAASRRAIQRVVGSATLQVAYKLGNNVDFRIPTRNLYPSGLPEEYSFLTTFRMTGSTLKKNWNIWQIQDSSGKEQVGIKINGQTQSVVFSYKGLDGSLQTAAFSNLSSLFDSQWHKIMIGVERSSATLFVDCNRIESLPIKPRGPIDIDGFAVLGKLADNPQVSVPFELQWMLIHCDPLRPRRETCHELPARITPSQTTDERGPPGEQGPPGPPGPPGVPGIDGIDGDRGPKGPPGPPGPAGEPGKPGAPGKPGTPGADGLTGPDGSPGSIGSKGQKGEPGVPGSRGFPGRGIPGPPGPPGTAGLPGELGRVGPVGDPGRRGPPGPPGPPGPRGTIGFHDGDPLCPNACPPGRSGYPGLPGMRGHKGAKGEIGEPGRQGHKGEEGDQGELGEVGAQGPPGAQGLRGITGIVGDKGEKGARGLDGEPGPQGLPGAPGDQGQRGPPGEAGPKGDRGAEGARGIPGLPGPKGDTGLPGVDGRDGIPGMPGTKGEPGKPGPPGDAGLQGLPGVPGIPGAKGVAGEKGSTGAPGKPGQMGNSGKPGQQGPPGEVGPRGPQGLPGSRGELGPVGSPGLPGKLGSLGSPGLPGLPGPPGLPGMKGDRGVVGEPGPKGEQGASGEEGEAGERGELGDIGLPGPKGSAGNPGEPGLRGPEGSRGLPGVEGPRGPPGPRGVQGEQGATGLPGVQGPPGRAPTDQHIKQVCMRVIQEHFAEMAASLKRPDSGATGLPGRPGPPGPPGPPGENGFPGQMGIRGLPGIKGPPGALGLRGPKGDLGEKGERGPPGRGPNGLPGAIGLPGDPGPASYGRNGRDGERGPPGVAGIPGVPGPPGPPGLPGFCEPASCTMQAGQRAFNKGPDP

For matrix metalloproteinase 13 (MMP-13), the “cleavage of collagen alpha1 (IX) in cartilage explants (Western blot and LC-MS of released fragments)” value [1] was “Bovine nasal cartilage explants were digested with MMP-13 and indeed the enzyme cleaved collagen α1 (IX)” and the “cleavage of collagen alpha1 (IX) in human articular cartilage (Western blot and LC-MS of the released 30 kD fragment)” value [2] was “a peptide representing a potentially new cleavage site CHELPARITPSQ^263-COOH (SEQ ID NO:6) NH2-TTDERGPP- (SEQ ID NO:7)”.
